Test results published in PMC7810697, “Sarcolipin alters SERCA1a interdomain communication by impairing binding of both calcium and ATP” (Scientific Reports, 2021).
Several values for one entry are separate records, joined by “and”; a condition that tells them apart may be missing. Equal values may be shown once. Ends that are not written are not given here. * marks the point of attachment. Palmitoyl = CCCCCCCCCCCCCCCC(=O)*

Assays:
SERCA1a [1] = details: cross-linking experiments; cited from earlier work
Excerpt: An analysis of all the published data on biochemical characterization of PLB or SLN highlights heterogeneity in the results.

SERCA1a [2] = details: cited from earlier work
Excerpt: Effect on the turnover is less clear as it seems to highly depend on the system used for functional characterization. […] This post-translational modification is also present in pig SLN and presumably in a few other mammals and birds, as judged from the amino-acid sequences. Among the other hundred seq ...

[3] = biological target: T1, recombinant SERCA1a (recS1a) (Oryctolagus cuniculus, UniProt P04191); assay: Steady-state ATPase activity, enzyme-coupled assay; assay type: biochemical, rabbit (expressed in S. cerevisiae)
T1 construct: BAD (biotin acceptor domain) (C, cleaved yes); made in house; host or cells: Saccharomyces cerevisiae
Protocol: resuspended in a large volume of pure water and lyophilized to evaporate most of the TFA. The rinsed powder was then suspended in presence of 10 mM HCl to exchange the anionic residual TFA that may interact with the positive charges of the peptide for chloride. This suspension was lyophilized again.
Three additional cycles of – dissolving in pure water / lyophilisation – will allow to eliminate traces of TFA and to get back to a pH compatible with functional tests. For final solubilisation of SLN in detergent, powder was then dissolved in 50% TFE and an amount of detergent to reach a 100:1 mole:mole detergent:SLN ratio. Here, we used C12E8 as it is fully compatible with functional characterization of SERCA1a 23. This suspension was then lyophilized again to evaporate TFE.
Sarcolipins (Palm-SLN or SLN) were finally resuspended at 0.8 mg/mL (about 200 µM) in a 10 mM potassium phosphate buffer pH 7.4, in the presence of 2.5 mg/mL C12E8.
Expression and Purification of recombinant SERCA1a (recS1a)
The yeast expression plasmid pYeDP60-SERCA1a-BAD (WT) and expression in Saccharomyces cerevisiae was described previously 30. Yeast membranes were solubilized by DDM for subsequent purification of recombinant Ca2+-ATPase by Streptavidin affinity chromatography 31. Purified recombinant SERCA1a was recovered in a buffer containing 50 mM MOPS-Tris pH7, 100 mM KCl, 5 mM MgCl2, 2.1 mM CaCl2, 40 % glycerol (v/v) and 0.5 mg/mL DDM, together with some thrombin remaining from the elution procedure. The protein concentration in the purified fraction was in the 0.05 to 0.15 mg/mL range depending on the batch. […]
Steady-state ATPase activity measurements
Measurements were performed using classical enzyme coupled assay. We measured the rate of NADH oxidation in the presence of 0.1 mg/mL lactate deshydrogenase, 0.05 mg/mL pyruvate kinase, 1 mM phosphoenolpyruvate, 0.25 mM NADH (protocol was adapted from 22) and in the additional presence of 2 mg/mL C12E8 to limit time-dependent inactivation of the purified SERCA1a 20,23.

[4] = biological target: T1, recombinant SERCA1a (recS1a); assay: Vanadate inhibition of phosphoenzyme formation, recS1a; assay type: biochemical, rabbit (expressed in S. cerevisiae); details: for K1/2 (K0.5) for vanadate inhibition, recS1a + pSLN: DDM-solubilized, preincubation with orthovanadate without calcium, phosphorylation 30 s at 0 °C, three independent experiments, p < 0.0001 vs recS1a alone
Protocol: Transient formation of the phosphoenzyme intermediate was measured after incubation with [γ^32P]ATP followed by acid quenching, and filtration. For most experiments, 50 µL of enzyme at 10 µg/mL in a buffer containing 50 mM Tes-Tris pH7.5, 1 mM KCl, 5 mM MgCl2, 20% glycerol (w/w) and 0.5 mg/mL DDM, supplemented or not with SLN, was stored on ice. Concentrations of EGTA and calcium are specified in figure legends in order to reach the appropriate [Ca^2+]free and therefore the desired starting state for the ATPase. For kinetics of phosphorylation, we initiate reaction by addition of 2 µM [γ^32P]ATP (5 mCi/µmole), and calcium at 100 µM when specified. Reaction was quenched by addition of 2 mL of cold quenching medium (500 mM TCA + 30 mM H3P0_4) under vigorous mixing, and immediately stored on ice for 20–30 min to improve precipitation, a period of time critical for retention of the precipitate on the filter in presence of detergent. This was followed by filtration on GS filters (Millipore, Saint Quentin-Fallavier, France) and careful rinsing of the filters with diluted quenching medium (50 mM TCA + 3 mM H3P0_4). The amount of radioactivity bound to the filter was estimated by liquid scintillation counting (Perkin Elmer TriCarb Counter). When starting from a calcium-deprived state (Fig. 4C,D), EGTA was added only one minute before starting phosphorylation to limit irreversible inactivation of the solubilized ATPase, although the presence of glycerol helps in protecting the enzyme from irreversible inactivation. For dephosphorylation kinetics, 1 mM “cold” Mg.ATP was added after a 30 s period of phosphorylation. For Ca^2+-dependency, we adjust the concentration of free calcium according to the Ca.EGTA constant as mentioned above, before triggering phosphorylation. […] Phosphorylations were done at 0 °C especially for inhibition by vanadate to prevent dissociation of vanadate and limit irreversible inactivation in absence of calcium.

[5] = biological target: T1, recombinant SERCA1a (recS1a); assay: Mg.ATP binding by tryptophan fluorescence; design: species or system rabbit (expressed in S. cerevisiae)
Protocol: Intrinsic fluorescence of SERCA1a was measured with a SPEX Fluorolog spectrofluorometer (Horiba/Jobin–Yvon, Longjumeau, France) as described before. Briefly, signals were monitored with excitation and emission wavelength set at 295 and 320 nm, with bandwidths of 2 and 10 nm, respectively. Changes in tryptophan fluorescence were recorded at 20 °C after dilution of protein samples to a final concentration of about 6–7.5 µg/mL into a medium containing 50 mM MOPS-Tris pH 7, 100 mM KCl, 5 mM MgCl2, 20% glycerol (v/v) and 10 mg/mL DDM. In presence of SLN, recS1a and SLN were first mixed together and incubate for 1 h on ice before measurement. In absence of SLN, recS1a is supplemented with 0.07 mg/mL C12E8 to compensate the detergent present with SLN. The Maxchelator program was used for estimating [Ca^2+]free[59] (program available at https://somapp.ucdmc.ucdavis.edu/pharmacology/bers/maxchelator/downloads.htm). The dissociation constant of the Ca.EGTA complex was taken to be 0.4 µM at pH7 and was assumed to be the same in the presence of glycerol.

T1 sequence (P04191 1-994 isoform P04191-2): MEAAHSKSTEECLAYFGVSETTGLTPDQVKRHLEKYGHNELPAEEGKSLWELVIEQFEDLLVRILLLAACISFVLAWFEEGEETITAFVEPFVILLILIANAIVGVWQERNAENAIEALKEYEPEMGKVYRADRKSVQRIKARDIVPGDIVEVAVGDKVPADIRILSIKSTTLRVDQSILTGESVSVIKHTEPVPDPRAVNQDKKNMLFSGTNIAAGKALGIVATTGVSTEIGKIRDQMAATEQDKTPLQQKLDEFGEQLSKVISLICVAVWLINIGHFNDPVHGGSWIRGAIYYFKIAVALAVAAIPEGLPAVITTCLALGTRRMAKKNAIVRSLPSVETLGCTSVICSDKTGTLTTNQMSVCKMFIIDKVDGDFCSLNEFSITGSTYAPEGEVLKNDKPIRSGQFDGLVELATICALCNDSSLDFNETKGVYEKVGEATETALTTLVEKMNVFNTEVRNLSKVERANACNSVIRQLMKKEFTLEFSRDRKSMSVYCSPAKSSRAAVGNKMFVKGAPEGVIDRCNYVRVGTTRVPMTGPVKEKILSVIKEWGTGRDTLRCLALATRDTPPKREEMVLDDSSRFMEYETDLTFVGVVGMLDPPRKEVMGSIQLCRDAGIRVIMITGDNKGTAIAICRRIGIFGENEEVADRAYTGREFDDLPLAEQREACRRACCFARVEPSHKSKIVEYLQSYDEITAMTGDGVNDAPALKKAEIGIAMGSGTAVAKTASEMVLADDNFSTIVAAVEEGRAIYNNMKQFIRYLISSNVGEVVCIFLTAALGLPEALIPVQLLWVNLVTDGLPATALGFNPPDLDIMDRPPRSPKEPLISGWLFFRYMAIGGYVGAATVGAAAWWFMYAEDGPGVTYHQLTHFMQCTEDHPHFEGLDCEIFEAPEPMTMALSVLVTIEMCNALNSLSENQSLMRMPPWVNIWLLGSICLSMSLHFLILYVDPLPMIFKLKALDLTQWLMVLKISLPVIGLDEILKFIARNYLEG

Substance | cross-linking interaction with SERCA1a (SERCA1a [1]) | apparent affinity for calcium in presence of SLN (SERCA1a [2]; 0.35 µM in absence of SLN) [µM] | Vmax in presence of SLN, increase reported by some authors (SERCA1a [2]; % of Vmax measured in absence of SLN, ref 13 and Supplementary Table 1) | maximal turnover ([3]; recS1a + Palm-SLN, recS1a alone 2.88 +/- 0.12) | affinity for calcium and maximum turn-over ([3]; recS1a in absence or presence of pSLN, enzyme-coupled assay) | Ca1/2 (ATPase activity), recS1a + pSLN ([3]; steady state, NADH-coupled assay, 2 mg/mL C12E8, three independent experiments, p=0.248) | K1/2 (K0.5) for vanadate inhibition, recS1a + pSLN [4] [µM] | K1/2 (K0.5) for vanadate inhibition, recS1a + pSLN ([4]; listed as Palm-SLN) | EPmax (vanadate series) ([4]; recS1a + pSLN, recS1a alone 2.01 ± 0.05) | fluorescence change on 0.3 µM Mg.ATP, recS1a + pSLN ([5]; 0.3 µM Mg.ATP, increase of fluorescence in absence of pSLN) | fluorescence change on 300 µM Mg.ATP, recS1a + pSLN ([5]; 300 µM Mg.ATP, decrease of fluorescence in absence of pSLN) | Mg-ATP1/2 (affinity for Mg.ATP), recS1a + pSLN ([5]; calcium-deprived (2 mM EGTA), pH 7, 20 °C, DDM, 20% glycerol, three independent experiments, p = 0.045) | nH for Mg.ATP, recS1a + pSLN ([5]; three independent experiments)
SLN: chemically synthesized non-palmitoylated rabbit sarcolipin; in cited literature results sarcolipin in general (MERSTRELCLNFTVVLITVILIWLLVRSYQY; UniProt P42532 1-31, looked up) | interaction of SLN with SERCA1a at all the major steps of the catalytic cycle | 0.51 | up to 140% |  |  |  |  |  |  |  |  |  | 
pSLN: chemically synthesized S-palmitoylated rabbit sarcolipin, 31-residue single-spanning membrane peptide, palmitoylated on Cys9 (MERSTRELC(Palmitoyl)LNFTVVLITVILIWLLVRSYQY; UniProt P42532 1-31, looked up) |  |  |  | 2.74 +/- 0.04 µmol ATP/mg/min | no difference was observed | 0.13 +/- 0.06 µM | 0.22 ± 0.01 | 0.22+/-0.01 µM | 2.07 ± 0.21 nmoles/mg of ATPase | no fluorescence intensity variation | increase of signal | 11 µM and 11.0 ± 1 µM | 0.95 ± 0.06
